Test results reported in article PMC3820651, “Cyclic Nucleotide Dependent Dephosphorylation of Regulator of G-Protein Signaling 18 in Human Platelets” (PLoS ONE, 2013).

Molecular target: T1, GST-tagged 14-3-3γ (UniProt P61981 1-247)
T1 construct: 14-3-3γ, in the bacterial expression vector pGEX-4T3; Held on glutathione sepharose 4B as bait; also called GST-14-3-3γ; GST-14-3-3
T1 sequence (looked up): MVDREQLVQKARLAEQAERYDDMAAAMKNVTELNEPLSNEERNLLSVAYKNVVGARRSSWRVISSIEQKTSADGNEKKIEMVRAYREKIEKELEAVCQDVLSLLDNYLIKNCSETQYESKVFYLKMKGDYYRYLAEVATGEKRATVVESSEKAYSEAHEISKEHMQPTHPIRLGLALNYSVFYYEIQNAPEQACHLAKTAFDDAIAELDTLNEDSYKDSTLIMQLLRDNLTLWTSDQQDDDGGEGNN
Experiment: pull-down; glutathione sepharose 4B saturated with purified GST-14-3-3γ, incubated with lysates of transfected HEK293T cells; cells without or with 10 µM forskolin (time course or 15 min), RGS18 alone or co-expressed with myc-spinophilin and/or VSV-PP1 catalytic subunit; precipitates blotted with anti-RGS18 or anti-FLAG
Conditions: one partner purified

fold reduction of binding by forskolin against non-treated cells (cells expressing RGS18, spinophilin and PP1): 21 fold
fold reduction of binding by forskolin against non-treated cells (cells expressing RGS18 alone): 2.6 fold
fold reduction of binding by forskolin against non-treated cells (cells expressing RGS18 and PP1): 25 fold
fold reduction of binding by forskolin against non-treated cells (cells expressing RGS18 and spinophilin): 3.7 fold
B1: FLAG-tagged RGS18 (wild type) (natural protein, human, UniProt Q9NS28 1-235, looked up)
chain: METTLLFFSQINMCESKEKTFFKLIHGSGKEETSKEAKIRAKEKRNRLSLLVQKPEFHEDTRSSRSGHLAKETRVSPEEAVKWGESFDKLLSHRDGLEAFTRFLKTEFSEENIEFWIACEDFKKSKGPQQIHLKAKAIYEKFIQTDAPKEVNLDFHTKEVITNSITQPTLHSFDAAQSRVYQLMEQDSYTRFLKSDIYLDLMEGRPQRPTNLRRRSRSFTCNEFQDVQSDVAIWL
modifications: phosphoserine at S218 present in the basal state; phosphoserine at S49 (s3 band); phosphoserine at S216 after forskolin
notes: Regulator of G-protein signaling 18 (RGS18), 235 amino acids, in pcDNA4/TO; also called wt RGS18; wt-RGS18; source: HEK293T, transfected, in lysate
